These results are taken from publication PMC9399094.

Bounds are passed on as bounds.

In series [1] the target is S.c. Mcm2-7 complex with S6- and 3xFlag-tagged Mcm3, fluorescently labeled (S. cerevisiae) (UniProt P29469). Put plainly: single-molecule photobleaching step counting (optical tweezers with confocal microscopy); LD650-MCM on nucleosome-free λ_(ARS1) DNA with unlabeled ORC, Cdc6, Cdt1; oxygen scavenging system omitted; labeling efficiency of MCM ~60%; two hexamers to a double hexamer on DNA.

The test system of series [2] is ORC (Orc1-6);Cdc6 (Saccharomyces cerevisiae (overexpressed in strain OY001);Saccharomyces cerevisiae). The series is described as follows: single-molecule fluorescence, optical tweezers. The following applies: biotinylated ends, H2A K120C, Single-molecule optical tweezers with confocal fluorescence, ATP present, 2 nM ORC, 5 nM Cdc6, 10 nM MCM, high-salt wash 0.5 M NaCl, buffer, pH and temperature ….

The target in series [3] is S.c. nucleosome: recombinant S. cerevisiae histone octamer (H2A K120C, fluorescently labeled) assembled on λ_(ARS1) DNA (S. cerevisiae) (UniProt P04911). Put plainly: single-molecule fluorescence colocalisation (dual-trap optical tweezers with confocal microscopy); nucleosomes sparsely assembled on λ_(ARS1) DNA tethered between streptavidin beads; 2 nM Cy3- or LD650-ORC and 5 nM Cdc6 in solution; 25 mM Tris-OAc pH 7.5, 50 mM potassium glutamate, 10 mM Mg(OAc)2, 2.5 mM ATP; room temperature.

Series [4] deals with ORC (Orc1-6);MCM (Mcm2-7);Cdc6;Cdt1 (Saccharomyces cerevisiae (overexpressed in strain OY001);Saccharomyces cerevisiae (overexpressed in strain OY001);Saccharomyces cerevisiae;Saccharomyces cerevisiae). The series is described as follows: single-molecule fluorescence, optical tweezers. To be noted: Single-molecule optical tweezers with confocal fluorescence, ATP present, 2 nM ORC, 5 nM Cdc6, 10 nM MCM, high-salt wash 0.5 M NaCl, buffer, pH and temperature ….

In series [1], “S.c. Mcm2-7 complex with S6- and 3xFlag-tagged Mcm3, fluorescently labeled, P29469 1-868; P24279 1-971; P30665 1-933; P29496 1-775; P53091 1-1017; P38132 1-845” registered a fraction of MCM with two-step photobleaching of 36% and a stoichiometry N of 2.

Regarding “S.c. nucleosomes on λARS1 DNA (all positions)”, the binding signal (% of nucleosomes with stably bound ORC) in series [2] (S. cerevisiae octamer) is > 90.

For “S.c. origin recognition complex (Orc1-6) with S6-3xFlag-Orc1, fluorescently labeled (from UniProt P54784 1-914; P32833 1-620; P54790 1-616; P54791 1-529; P50874 1-479; P38826 1-435)”, in series [3], the fraction of nucleosomes with a stably bound ORC at 2 nM ORC was > 90%.

Consider “X.l. nucleosomes on λARS1 DNA (all positions)”, for which, in series [2] (Xenopus laevis octamer), the binding signal (% of nucleosomes with stably bound ORC) is > 90.

Take λARS1 DNA, ARS1 site: the binding signal in series [4] (0.5 M NaCl wash, biotinylated ends (biotin-11-dUTP, biotin-14-dCTP fill-in), scale: % of MCM loaded) turned out to be 62.

Regarding λARS1 DNA, non-ARS1 positions, the binding signal is 86 in series [4] (10 nM MCM, 5 nM Cdc6, biotinylated ends, scale: % of stably bound MCM located at non-ARS1 positions) and 25 in series [4] (0.5 M NaCl wash, biotinylated ends, scale: % of MCM loaded).

As a reminder, the stoichiometry N is a count of units in the complex or per binding partner.
